Reference: FireProtDB (doi:10.1021/bi952930e)

B1: Ribonuclease, P00648 (parent)
chain: MMKMEGIALKKRLSWISVCLLVLVSAAGMLFSTAAKTETSSHKAHTEAQVINTFDGVADYLQTYHKLPDNYITKSEAQALGWVASKGNLADVAPGKSIGGDIFSNREGKLPGKSGRTWREADINYTSGFRNSDRILYSSDWLIYKTTDHYQTFTKIR

Variants of: B1
Details: Bacillus amyloliquefaciens, pH 6.3, 25 °C, Urea, MES 100 mM, reversible: yes, structure 1BNI, whole UniProt chain shown

Row | Variant | ddG of mutation (higher = less stable) (Fluorescence) [kJ/mol] | denaturant m value (Fluorescence) [kcal/mol/M] | denaturant midpoint (higher = more stable) (Fluorescence) [M] | ddG of mutation (higher = less stable) (CD) [kJ/mol] | denaturant m value (CD) [kcal/mol/M] | denaturant midpoint (higher = more stable) (CD) [M]
1 | MMKMEGIALKKRLSWISVCLLVLVSAAGMLFSTAAKTETSSHKAHTEAQVINTFDGVADYLQTYHKLPDNYITKSEAQALGWVASKGNLADVAPGKSIGGDIFSNREGKLPGKSGRTWREANINYTSGFRNSDRILYSSDWLIYKTTDHYQTFTKIR [D122N] | 20.1 | 1.69 | 2.08 | – | – | –
2 | MMKMEGIALKKRLSWISVCLLVLVSAAGMLFSTAAKTETSSHKAHTEAQVINTFDGVADYLQTYHKLPDNYITKSEAQALGWVASKGNLADVAPGKSIGGDIFSNREGKLPGKSGRTWREADINYTSGFRNSDRILYSSNWLIYKTTDHYQTFTKIR [D140N] | 17.2 | 1.99 | 2.44 | – | – | –
3 | MMKMEGIALKKRLSWISVCLLVLVSAAGMLFSTAAKTETSSHKAHTEAQVINTFDGVADYLQTYHKLPDNYITKSEAQALGWVASKGNLADVAPGKSIGGDIFSNREGKLPGKSGRTWREADINYTSGFQNSDRILYSSDWLIYKTTDHYQTFTKIR [R130Q] | 8.58 | 2.28 | 3.51 | – | – | –
4 | MMKMEGIALKKRLSWISVCLLVLVSAAGMLFSTAAKTETSSHKAHTEAQVINTFDGVADYLQTYHKLPDNYITKSEAQALGWVASKGNLADVAPGKSIGGDIFSNREGKLPGKSGRTWREADINYTSGFKNSDRILYSSDWLIYKTTDHYQTFTKIR [R130K] | 17.3 | 1.68 | 2.43 | – | – | –
5 | MMKMEGIALKKRLSWISVCLLVLVSAAGMLFSTAAKTETSSHKAHTEAQVINTFDGVADYLQTYHKLPDNYITKSEAQALGWVASKGNLADVAPGKSIGGDIFSNREGKLPGKSGKTWREADINYTSGFRNSDRILYSSDWLIYKTTDHYQTFTKIR [R116K] | – | – | – | 13.1 | 1.89 | 2.94
6 | MMKMEGIALKKRLSWISVCLLVLVSAAGMLFSTAAKTETSSHKAHTEAQVINTFDGVADYLQTYHKLPDNYITKSEAQALGWVASKGNLADVAPGKSIGGDIFSNREGKLPGKSGMTWREADINYTSGFRNSDRILYSSDWLIYKTTDHYQTFTKIR [R116M] | 8.87 | 2.14 | 3.47 | – | – | –
7 | MMKMEGIALKKRLSWISVCLLVLVSAAGMLFSTAAKTETSSHKAHTEAQVINTFDGVADYLQTYHKLPDNYITKSEAQALGWVASKGNLADVAPGKSIGGDIFSNREGKLPGKSGSTWREADINYTSGFRNSDRILYSSDWLIYKTTDHYQTFTKIR [R116S] | 11.4 | 1.86 | 3.16 | – | – | –
